Results as given in IntAct's records for PubMed 33990585.

B1: Mitochondrial import receptor subunit TOM70 (Homo sapiens), O94826 (parent)
chain: MAASKPVEAAVVAAAVPSSGSGVGGGGTAGPGTGGLPRWQLALAVGAPLLLGAGAIYLWSRQQRRREARGRGDASGLKRNSERKTPEGRASPAPGSGHPEGPGAHLDMNSLDRAQAAKNKGNKYFKAGKYEQAIQCYTEAISLCPTEKNVDLSTFYQNRAAAFEQLQKWKEVAQDCTKAVELNPKYVKALFRRAKAHEKLDNKKECLEDVTAVCILEGFQNQQSMLLADKVLKLLGKEKAKEKYKNREPLMPSPQFIKSYFSSFTDDIISQPMLKGEKSDEDKDKEGEALEVKENSGYLKAKQYMEEENYDKIISECSKEIDAEGKYMAEALLLRATFYLLIGNANAAKPDLDKVISLKEANVKLRANALIKRGSMYMQQQQPLLSTQDFNMAADIDPQNADVYHHRGQLKILLDQVEEAVADFDECIRLRPESALAQAQKCFALYRQAYTGNNSSQIQAAMKGFEEVIKKFPRCAEGYALYAQALTDQQQFGKADEMYDKCIDLEPDNATTYVHKGLLQLQWKQDLDRGLELISKAIEIDNKCDFAYETMGTIEVQRGNMEKAIDMFNKAINLAKSEMEMAHLYSLCDAAHAQTEVAKKYGLKPPTL

Variants of: B1
Details: with orf9b_sars2 orf9b

Variant	effect of a mutation on the interaction
E549A	decreasing interaction strength
E549I	decreasing interaction strength
H583Q	with no effect
D545A	decreasing interaction strength
E477A	decreasing interaction strength
